This note sets out measurements from patent publication US20100202967A1 (BRACCO IMAGING, published 2010).

Test [1] concerns the target fibrin. Kind of test: fluorescence polarization, direct binding (n = 2).
In test [2] the target is fibrin. Kind of test: competition fluorescence polarization assay (n = 2).
Test [3] addresses fibrin. Kind of test: competition fluorescence polarization assay; reference of Table 6.
Test [4] deals with T1, fibrin.
T1 chain 1: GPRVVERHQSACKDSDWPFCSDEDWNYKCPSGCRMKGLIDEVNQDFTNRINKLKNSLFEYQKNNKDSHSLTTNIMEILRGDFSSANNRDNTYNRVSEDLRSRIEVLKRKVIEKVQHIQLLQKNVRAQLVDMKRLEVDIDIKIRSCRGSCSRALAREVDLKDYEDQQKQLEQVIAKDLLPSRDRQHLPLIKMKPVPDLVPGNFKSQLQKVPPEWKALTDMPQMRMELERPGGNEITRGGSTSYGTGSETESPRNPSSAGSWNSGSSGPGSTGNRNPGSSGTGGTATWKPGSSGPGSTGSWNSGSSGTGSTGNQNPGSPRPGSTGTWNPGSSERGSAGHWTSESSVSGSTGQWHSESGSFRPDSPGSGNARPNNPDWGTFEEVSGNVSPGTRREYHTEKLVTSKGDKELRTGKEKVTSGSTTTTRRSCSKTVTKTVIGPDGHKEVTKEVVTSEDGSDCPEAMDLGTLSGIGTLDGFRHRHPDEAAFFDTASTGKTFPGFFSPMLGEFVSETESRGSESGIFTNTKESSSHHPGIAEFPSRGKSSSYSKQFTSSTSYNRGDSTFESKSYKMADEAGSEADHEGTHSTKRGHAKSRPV
T1 chain 2: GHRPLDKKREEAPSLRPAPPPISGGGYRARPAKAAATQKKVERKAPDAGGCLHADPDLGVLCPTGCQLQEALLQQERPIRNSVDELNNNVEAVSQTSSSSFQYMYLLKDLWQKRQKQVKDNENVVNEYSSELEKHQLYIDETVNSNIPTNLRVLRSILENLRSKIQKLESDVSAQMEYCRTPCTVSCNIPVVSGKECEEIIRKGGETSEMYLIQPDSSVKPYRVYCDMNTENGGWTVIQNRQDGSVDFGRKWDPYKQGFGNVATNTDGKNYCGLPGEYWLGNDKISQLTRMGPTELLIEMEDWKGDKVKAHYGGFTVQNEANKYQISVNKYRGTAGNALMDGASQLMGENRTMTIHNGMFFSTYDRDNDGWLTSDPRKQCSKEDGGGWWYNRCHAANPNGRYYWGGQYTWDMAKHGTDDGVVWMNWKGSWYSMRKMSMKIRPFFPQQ
T1 chain 3: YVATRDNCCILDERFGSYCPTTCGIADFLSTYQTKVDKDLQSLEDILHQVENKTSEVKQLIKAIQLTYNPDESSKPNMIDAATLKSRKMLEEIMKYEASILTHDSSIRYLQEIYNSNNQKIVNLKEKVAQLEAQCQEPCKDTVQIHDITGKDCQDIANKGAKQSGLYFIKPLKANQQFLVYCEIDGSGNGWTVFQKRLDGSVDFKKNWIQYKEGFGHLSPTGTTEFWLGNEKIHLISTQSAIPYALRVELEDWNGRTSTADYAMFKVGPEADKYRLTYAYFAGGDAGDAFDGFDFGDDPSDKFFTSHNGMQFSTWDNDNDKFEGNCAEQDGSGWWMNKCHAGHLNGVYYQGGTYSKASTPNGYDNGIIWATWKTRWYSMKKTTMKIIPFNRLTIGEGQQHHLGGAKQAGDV
Kind of test: competition fluorescence polarization assay (n = 2).

Bridge positions count the residues as written; N and C are the ends. Square brackets hold non-standard residues; d marks the D form. Ends that are not written are not given here. Phe(3,4-F2) = N[C@@H](Cc1ccc(F)c(F)c1)C(=O)O; Thf2ca = tetrahydrofuran-2-carboxylic acid; Phe(4-F) = N[C@@H](Cc1ccc(F)cc1)C(=O)O; Hyp = O=C(O)[C@@H]1C[C@@H](O)CN1; Cha = N[C@@H](CC1CCCCC1)C(=O)O; CF5 = 5-carboxyfluorescein

Take Ac-RWQPCPWESWTFCWDPGGGK(CF5)-NH2 (disulfide 5-13) [Ac-RWQPC*PWESWTFC*WDPGGGK(CF5)-NH2]: the Kd with fibrin [1] came to 110 nM.
As for Thf2ca-WQPCPWESWTFCWDPGGGK(CF5)-NH2 (disulfide 4-12) [Thf2ca-WQPC*PWESWTFC*WDPGGGK(CF5)-NH2], the Kd with fibrin [1] worked out at 1210 nM.
Take Ac-WQPCPWESWTFCWDPGGGK(CF5)-NH2 (disulfide 4-12) [Ac-WQPC*PWESWTFC*WDPGGGK(CF5)-NH2]: the Kd with fibrin [1] stood at 390 nM.
In the case of Ac-WQPCPWESWT[Cha]CWDPGGGK-NH2 (disulfide 4-12) [Ac-WQPC*PWESWT-Cha-C*WDPGGGK-NH2], in the test with fibrin [2], the Rel IC50 (ratio to Ac-Seq000-GGGK-NH2) is 0.494.
As to Ac-WQPCPWESWT[Phe(3,4-F2)]CWDPGGGK-NH2 (disulfide 4-12) [Ac-WQPC*PWESWT-F34fe-C*WDPGGGK-NH2], in the test with fibrin [2], the Rel IC50 (ratio to Ac-Seq000-GGGK-NH2) was found to be 0.428.
Turning to H-GWQPCPAESWTFCWDPGGGK(CF5)-NH2 (disulfide 5-13) [GWQPC*PAESWTFC*WDPGGGK(CF5)-NH2], the Kd with fibrin [1] was 240 nM.
The same measure, in the same setting: then H-RGWQPCPAESWT[Cha]CWDPGGGK(CF5)-NH2 (disulfide 6-14) [RGWQPC*PAESWT-Cha-C*WDPGGGK(CF5)-NH2], with 50 nM.
Take Thf2ca-WQPCPWESWTFCWDPGGGK-NH2 (disulfide 4-12) [Thf2ca-WQPC*PWESWTFC*WDPGGGK-NH2]: in the test with fibrin [2], the Rel IC50 (ratio to Ac-Seq000-GGGK-NH2) came to 0.616.
For H-RWQPCPAESWTFCWDPGGGK(CF5)-NH2 (disulfide 5-13) [RWQPC*PAESWTFC*WDPGGGK(CF5)-NH2], the Kd with fibrin [1] was found to be 60 nM. That is a double-digit nanomolar value.
Consider H-RWQPCPWESWTFCWDPGGGK(CF5)-NH2 (disulfide 5-13) [RWQPC*PWESWTFC*WDPGGGK(CF5)-NH2], for which the Kd in the test with fibrin [1] was determined as 110 nM.
The same measure, in the same setting: then Ac-WQPCPWESWT[Cha]CWDPGGGK(CF5)-NH2 (disulfide 4-12) [Ac-WQPC*PWESWT-Cha-C*WDPGGGK(CF5)-NH2], with 200 nM.
On to WQPCPWESWTFCWDPGGGK (N-terminal acetyl; disulfide Cys4-Cys12 (C*); C-terminal amide) [Ac-WQPC*PWESWTFC*WDPGGGK-NH2], for which the Rel IC50 (ratio (reference peptide itself)) with fibrin [3] is 1.
As to Ac-WQPCPWESWT[Phe(3,4-F2)]CWDPGGGK(CF5)-NH2 (disulfide 4-12) [Ac-WQPC*PWESWT-F34fe-C*WDPGGGK(CF5)-NH2], in the test with fibrin [1], the Kd was found to be 700 nM.

B1: Ac-RRGGWQPC*-Hypt4-WESWTFC*WDPGGGK-NH2 (peptide)
peptide: Ac-RRGGWQPC[Hyp]WESWTFCWDPGGGK-NH2
modifications: disulfide 8-16
SMILES: CC(=O)N[C@@H](CCCNC(=N)N)C(=O)N[C@@H](CCCNC(=N)N)C(=O)NCC(=O)NCC(=O)N[C@@H](Cc1c[nH]c2ccccc12)C(=O)N[C@@H](CCC(N)=O)C(=O)N1CCC[C@H]1C(=O)N[C@H]1CSSC[C@@H](C(=O)N[C@@H](Cc2c[nH]c3ccccc23)C(=O)N[C@@H](CC(=O)O)C(=O)N2CCC[C@H]2C(=O)NCC(=O)NCC(=O)NCC(=O)N[C@@H](CCCCN)C(N)=O)NC(=O)[C@H](Cc2ccccc2)NC(=O)[C@H]([C@@H](C)O)NC(=O)[C@H](Cc2c[nH]c3ccccc23)NC(=O)[C@H](CO)NC(=O)[C@H](CCC(=O)O)NC(=O)[C@H](Cc2c[nH]c3ccccc23)NC(=O)[C@@H]2C[C@@H](O)CN2C1=O
Take B1: the “Rel IC50” value with fibrin [4] was 0.75 ratio to Ac-Seq000-GGGK-NH2.

B2: Ac-RWQPC*PAESWTFC*WDPGGGK(CF5)-NH2 (peptide)
peptide: RWQPCPAESWTFCWDPGGGK(CF5)-NH2
modifications: disulfide 5-13; not fully specified (N-terminus); printed as RWQPC*PAESWTFC*WDPGGGK(CF5)-NH2
B2 showed a dissociation constant Kd with fibrin [1] of 210 nM.
Take Ac-GWQPCPWESWTFCWDPGGGK-NH2 (disulfide 5-13) [Ac-GWQPC*PWESWTFC*WDPGGGK-NH2]: the Rel IC50 (ratio to Ac-Seq000-GGGK-NH2) with fibrin [2] came out at 1.04.
In the test with fibrin [1], Ac-GWQPCPAESWTFCWDPGGGK(CF5)-NH2 (disulfide 5-13) [Ac-GWQPC*PAESWTFC*WDPGGGK(CF5)-NH2] showed a Kd of 240 nM. This lies in the sub-micromolar range.
For the molecule H-GWQPCPWESWTFCWDPGGGK-NH2 (disulfide 5-13) [GWQPC*PWESWTFC*WDPGGGK-NH2], the Rel IC50 (ratio to Ac-Seq000-GGGK-NH2) in the test with fibrin [2] is 0.622.
Consider Ac-WQPCPWESWT[Phe(4-F)]CWDPGGGK(CF5)-NH2 (disulfide 4-12) [Ac-WQPC*PWESWT-Ffe4-C*WDPGGGK(CF5)-NH2], for which the Kd with fibrin [1] worked out at 1020 nM.
With Ac-WQPCPWESWT[Phe(4-F)]CWDPGGGK-NH2 (disulfide 4-12) [Ac-WQPC*PWESWT-Ffe4-C*WDPGGGK-NH2], in the test with fibrin [2], the Rel IC50 (ratio to Ac-Seq000-GGGK-NH2) was 0.601.
Take Ac-RGWQPCPAESWT[Cha]CWDPGGGK(CF5)-NH2 (disulfide 6-14) [Ac-RGWQPC*PAESWT-Cha-C*WDPGGGK(CF5)-NH2]: in the test with fibrin [1], the Kd was determined as 100 nM.
